From patent US20180148514A1, “MULTIVALENT MEDITOPES, MEDITOPE-BINDING ANTIBODIES AND USES THEREOF” (City of Hope, priority 2014, published 2018)

B1: BVM: bivalent meditope, peptide sequence of SEQ ID NO: 229 (protein)
chain: MGSSHHHHHHSSGLVPRGSHMGGGSWSHPQFEKGGGSGGGMSDSEVNQEAKPEVKPEVKPETHINLKVSDGSSEIFFKIKKTTPLRRLMEAFAKRQGKEMDSLRFLYDGIRIQADQTPEDLDMEDNDIIEAHREQIGGGGSAAPSSAPSPSAPCQFDLSTRRLSCGGASPAASPSAPSSPAPKAPSAAPSSAPSPSAPGGCQFDLSTRRLSCGGASPAASPSAPSSPAPK
modifications: (1)..(230) His6-SMT3-Bivalent meditope (BVM) sequence (Amino Acid)
B2: MOR-208: Meditope-enabled MOR208 (CD-19 antibody), light chain SEQ ID NO: 226, heavy chain SEQ ID NO: 227, pHrodo labeled (protein)
light: DIVMTQSPAILSLSPGERATLSCRSSKSLQNVNGNTYLYWFQQKTNGSPRLLIYRMSNLNSGVPDRFSGSGSGTEFTLTISSLEPEDEADYYCIQHLEYPITFGAGTKLEIKRTVAAPSVFIFPPSDEQLKSGTASVVCLLNNFYPREAKVQWKVDNALQSGNSQESVTEQDSKDSTYSLSSTLTLSKADYEKHKVYACEVTHQGLSSPVTKSFNRGEC
heavy: EVQLVESGGGLVKPGGSLKLSCAASGYTFTSYVMHWVRQSPGKGLEWIGYINPYNDGTKYNEKFQGRVTISSDKSISTAYMELSSLRSEDTAIYYCARGTYYYGTRVFDYWGQGTLVTVSSASTKGPSVFPLAPSSKSTSGGTAALGCLVKDYFPEPVTVSWNSGALTSGVHTFPAVLQSSGLYSLSSVVTVPSSSLGTQTYICNVNHKPSNTKVDKKVEPKSCDKTHTCPPCPAPELLGGPDVFLFPPKPKDTLMISRTPEVTCVVVDVSHEDPEVQFNWYVDGVEVHNAKTKPREEQFNSTFRVVSVLTVVHQDWLNGKEYKCKVSNKALPAPEEKTISKTKGQPREPQVYTLPPSREEMTKNQVSLTCLVKGFYPSDIAVEWESNGQPENNYKTTPPMLDSDGSFFLYSKLTVDKSRWQQGNVFSCSVMHEALHNHYTQKSLSLSPGK
modifications: pHrodo label; (1)..(219) MOR-208 Light chain; (1)..(451) MOR-208 Heavy chain
B3: TVM: trivalent meditope, peptide sequence of SEQ ID NO: 231, expressed in E. coli (protein)
chain: MGGGSWSHPQFEKGGGSGGGMSDSEVNQEAKPEVKPEVKPETHINLKVSDGSSEIFFKIKKTTPLRRLMEAFAKRQGKEMDSLRFLYDGIRIQADQTPEDLDMEDNDIIEAHREQIGGGGSAAPSSAPSPSAPCQFDLSTRRLSCGGASPAASPSAPSSPAPKAPSAAPSSAPSPSAPGGCQFDLSTRRLSCGGASPAASPSAPSSPAPKAPSAAPSSAPSPSAPGGCQFDLSTRRLSCGGSPSAPSSPSSPKLPETG
modifications: (1)..(258) His6-SMT-Trivalent meditope (TVM) sequence (Amino Acid)

Legend:
[1] = tested on: meditope enabled antibody trastuzumab; test: SPR analysis of BVM and TVM gel filtration fractions; type: binding; details: BVM fractions 26-29, TVM fractions 21-23
Raji-B cells = test: pHrodo-labeled CD-19 antibody internalization, fluorescence microscopy, Raji-B; type: cell-based, human; details: 100 nM antibody with or without 100 nM meditope-Fc, 30 minutes, 37° C., n=8
Procedure: Raji-B cells, a human B lymphocyte cell line derived from human lymphoblast, CCL-86™, ATCC®, were stained for fluorescence microscopy to determine receptor-mediated endocytosis rates of the pHrodo™-labeled CD-19 antibody. Cells were stained in Nunc® Lab-Tek® II chambered 8 well coverglass polystyrene chambers (0.7 cm^2/well). Cells were stained using either 100 nM antibody and 100 nM of Alexa Fluor 488®-labeled meditope-Fc (SEQ ID NO: 236) or 100 nM antibody alone (control) for 30 minutes at 37° C. in serum-free media. Nuclei of Raji-B cells were also stained with Hoechst 33342 (2 μg/mL final concentration for 20 minutes).
Cells were imaged with a confocal microscope using appropriate wavelength settings for pHrodo™-labeled antibodies, Alexa Fluor 488-labeled meditope-Fc, and Hoechst 33342-labeled nuclei. Z sectioning permitted visualization of the internalized materials and all quantitative measurements were taken at the same defined section height. Cells were visualized and quantified at each time point for each visualization event. Total fluorescence of each stain inside and outside of imaged cells were calculated using ImageJ analysis at a single time point of 30 minutes. Total staining for MOR-208 alone was calculated as 1797.71±194.97 (n=8). Total staining for MOR-208 bound to meditope-Fc was calculated as 4430.43±632.59 (n=8).

[2] = tested on: Meditope-enabled trastuzumab version 2; test: SPR multivalent meditope valency test at varying ligand densities; type: binding; details: for Ka / t1/2: 37° C., 1:1 fit
Procedure: The low density channel was approximately 150 RU (FIG. 19A), the medium density channel was approximately 750 RU (FIG. 19B), and the high density channel was approximately 1500 RU (FIG. 19C).
Trivalent meditope (TVM) (SEQ ID NO: 231) concentrations were prepared as a 5-fold dilution series from 1 μM to 2.6 pM in HBS-EP+. Samples were flowed over all four channels at 30 μL/min at 37° C. Sensograms were double referenced to the blank immobilization on channel 1 and with two “0” concentration buffer blanks.
A control meditope peptide was run at the beginning and end of the experiment to assess for loss of surface activity during the experiment. Less than 5% decrease in signal was observed on the most dense ligand surface after the experiment was completed. Regeneration buffer for the experiment was a pulse of 10 mM glycine pH 3.0 with variable time from 2-10 seconds followed by a 30 sec pulse of running buffer HBS-EP+.
Data fits were performed using BiaEvaluation software with the 1:1 fit model. Data fit quality to the 1:1 binding model decreased as the surface density of ligand increased and the off rate was not well determined due to lack of curvature.

SKBR3 cells = test: Microscopy of SKBR3 cells with labeled TVM and trastuzumab variants; type: cell-based
Procedure: TVM was labeled with NHS-Alexa Fluor 647 following the manufacturer's protocol (Thermo Fisher Scientific, Waltham Mass.) 0.1 M sodium bicarbonate buffer pH 8.0 at room temperature for 1 hour).

[3] = most densely immobilized surface

Row | Molecule | binding (SPR) [1] | total staining (total fluorescence, ImageJ) (Raji-B cells) | Ka ([2]; density 150 RU) [M⁻¹ s⁻¹] | t1/2 ([2]; density 150 RU) [h] | Ka ([2]; density 750 RU) [M⁻¹ s⁻¹] | t1/2 ([2]; density 750 RU) [h] | Ka ([2]; density 1500 RU) [M⁻¹ s⁻¹] | t1/2 ([2]; density 1500 RU) [h] | half-life [2, 3] [h] | improvement of half-life over monovalent meditope [2, 3] [fold] | cell morphology and attachment (SKBR3 cells; labeled TVM with meditope enabled antibody trastuzumab) | cell morphology and attachment (SKBR3 cells; labeled TVM with parental trastuzumab)
1 | B1 | bound meditope enabled antibody trastuzumab antibodies |  |  |  |  |  |  |  |  |  |  | 
2 | B2 |  | 1797.71±194.97 |  |  |  |  |  |  |  |  |  | 
3 | B3 | bound meditope enabled antibody trastuzumab antibodies |  | 8700 | 0.4 | 10000 | 1.3 | 9800 | 2.4 | 2.42 | > 30 | rounded morphology and frequently detached from the surface of the coverslides | not observed
